Results as given in the supplement of paper PMC9170038.

System: MS2 coat protein
Assay: apparent KD of MS2 coat protein; designed switch direction (-1 OFF switch, 1 ON switch): -1; higher = weaker reporter binding
Summary of the method: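 Designed RNA switches with common flanks were transcribed on Illumina chips by stalled E. coli RNA polymerase and titrated with SNAP-549-labelled MS2 coat protein, from 0.7 or 1.5 nM doubling to 3 µM, in Tris-HCl pH 7.5 buffer with KCl, MgCl2, BSA, DTT, tRNA and Tween-20. Steps lasted 0.8–1.5 h (lowest) to 10–20 min (highest). Titrations ran without input, with 200 uM small-molecule ligand, or with an oligonucleotide input. Normalised cluster fluorescence was curve-fitted, and apparent KD is the per-design median over clusters.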

[1] = input ligand: microRNA oligo, concentration not stated
[2] = Eterna round: R95, input ligand: FMN 200 uM
[3] = Eterna round: R95, input ligand: microRNA oligo, concentration not stated
[4] = Eterna round: R95, input ligand: none

Sequence | apparent KD of MS2 coat protein (input ligand: FMN 200 uM) [nM] | apparent KD of MS2 coat protein [1] [nM] | apparent KD of MS2 coat protein (input ligand: none) [nM] | other results
UAAGAUUACCGAGGAUAUGCUGGUUUAUCUCAAGCAGAAGGCGGACUCAACAUGAGGAUCACCCAUGUAAGACGGGUACUAGAU [Ex NG1 #12] (Eterna round: R96, puzzle: Exclusion NG 1) | 61.5 | 69.1 | 97.1 | 
UAAGAUUACCGAGGAUAUGCUGGUUUCUCUUAAGCAGAAGGCGGACUCAACAUGAGGAUCACCCAUGUAAGAAGGGUAUUAGAU [Ex NG1 #10] (Eterna round: R96, puzzle: Exclusion NG 1) | 85.9 | 78.6 | 116 | 
UAAGAUUACCGAGGAUAUGGUAAUUUUUAUUAACCAGAAGGCGGACUCAACAUGAGGAUCACCCAUGUAUAAAGGGUAUUAGUU [JR_ExcNG1_Sub039] (Eterna round: R96, puzzle: Exclusion NG 1) | 87.5 | 70.7 | 98.7 | 
UAAGUUGUGGUAGGAUAUACUUUAAAUUUCUCUAUCCAUACAUGAGGAUCACCCAUGUUUACAUUGUAGAAGGACCUUUUUGUU [JR_ExcNG2_Sub058] (Eterna round: R96, puzzle: Exclusion NG 2) |  | 19.7 |  | 
UAAGUUUAGGUAGGAUAUACUUUAAAUUUCUCUAUCCAUACAUGAGGAUCACCCAUGUUUACAUUGUAGAAGGACCACUAUGUU [JR_ExcNG2_Sub055] (Eterna round: R96, puzzle: Exclusion NG 2) |  | 19.8 |  | 
UAAGUUUAGGUAGGAUAUACUUUCAAUUUCUCUUUCCUUACAUGAGGAUCACCCAUGUUUACAUUGUAGAAGGACCACUAUGUU [JR_ExcNG2_Sub054] (Eterna round: R96, puzzle: Exclusion NG 2) |  | 20.5 |  | 
UAAGUUUAGGUAGGAUAUACUUUUAAUUUCUCUUUCCUUACAUGAGGAUCACCCAUGUUUACAUUGUAGAAGGACCACUAUGUU [JR_ExcNG2_Sub053] (Eterna round: R96, puzzle: Exclusion NG 2) | 17.8 | 18.3 | 26.4 | 
UAAUAAUAGCAAGGAUAUGAUUAUUAUAAUAUAUCAGAAGGUGCACAUGAGGAUCACCCAUGUUUUAUAAUUUGUAAUUUAAAU [2nd something] (Eterna round: R96, puzzle: Exclusion NG 1) |  | 40.4 |  | 
UAAUAAUAGUCAGGAUAUAGUUAUUAUAAUAUACUAGAAGGGACACAUGAGGAUCACCCAUGUUUUAUAAUUUGUAAUUUAAAU [5th something] (Eterna round: R96, puzzle: Exclusion NG 1) |  | 16.2 |  | 
UAAUACAAGUAAGGAUUCUACAUGAGGAUCACCCAUGUGCUCGUCUUAUAAAGUACUAUCACGAAAGUGAUAGUACA [Mat - Sensor v3 - turn-off var 1 - Eli Mod - D99] (puzzle: Sensor v3, turn-off variant 1) |  |  |  | apparent KD of MS2 coat protein [2]: 23.5 nM; apparent KD of MS2 coat protein [3]: 148 nM; apparent KD of MS2 coat protein [4]: 26.4 nM
UAAUACGAUGUCAGGAUAUGUAAGACACUUGUAACACAGAAGGGACAUGAGGAUCACCCAUGUAAGGGCUCUUC [Rimala] (puzzle: Brourd's mod of Exclusion 4) |  |  |  | apparent KD of MS2 coat protein [2]: 51.4 nM; apparent KD of MS2 coat protein [3]: 20.4 nM; apparent KD of MS2 coat protein [4]: 22.6 nM
UAAUAGUAUGUUAGGAUAUGCUGGUCCUUGGAUCAGCAGAAGGAACAUGAGGAUCACCCAUGUAGAAUAUUUUA [Mod of JL 18 - Jieux - Brourd's mod of Exclusion 4] (Eterna round: R97, puzzle: Brourd's mod of Exclusion 4) | 56.8 |  | 18.1 | 
UAAUAGUCAGGAUAUACAUGAGGAUCACCCAUGUAGAAAUGAACCUGGGUUCUCCUAGGUAGAAGGGACAAAAG [Geerqu] (puzzle: Exclusion 3) |  |  |  | apparent KD of MS2 coat protein [2]: 28.7 nM; apparent KD of MS2 coat protein [3]: 22.7 nM; apparent KD of MS2 coat protein [4]: 24.1 nM
UAAUAUCUGUAGGAUAUCAGUGGAAAACACGUAUGAGAAGGGCAGACAUGAGGAUCACCCAUGUAUAGGGUCCG [BotMod 7 - Jieux - Exclusion 6] (Eterna round: R97, puzzle: Exclusion 6) | 61.9 |  | 20.9 | 
UAAUAUCUGUAGGAUAUCAGUGGAGCACACGUAUGAGAAGGGCAGACAUGAGGAUCACCCAUGUAUAGGGUCCG [BotMod 5 - Jieux - Exclusion 6] (Eterna round: R97, puzzle: Exclusion 6) | 38.7 |  | 29.3 | 
UAAUGUGCGAGAGGAUAUCGUGUACAAAGUACACGAGAAGGCUUCACAUGAGGAUCACCCAUGUACCGAGGUGAAACACCUUGA [Omei Exc(NG)1 B] (Eterna round: R96, puzzle: Exclusion NG 1) | 950 | 110 | 383 | 
UAAUUAAGUGUGAGGAUAUGCUGGUCCUUGGAUCAGCAGAAGGCACAUGAGGAUCACCCAUGUAAUAUAUUUAU [JL bmx4 3.11] (puzzle: Brourd's mod of Exclusion 4) |  |  |  | apparent KD of MS2 coat protein [3]: 81.9 nM
UAAUUAAUUAAUUAAUAAUACAUGAGGAUCACCCAUGUAGAUCCUACAUACAAGCUAAGUAGCUCGUCUUAUAAUUA [Stov1/2-A1] (Eterna round: R97, puzzle: Sensor, turn-off variant 1) | 364 |  | 353 | 
UAAUUCAGAGGAUAUGCGCAUAGAUAAGACUUUUUUUUUUAACAUGAGGAUCACCCAUGUAGAAGGCUGUAAUU [Ex2 #54] (Eterna round: R97, puzzle: Exclusion 2) | 24 |  | 23.1 | 
UAAUUGAUUAAUAGAUUAUACAUGAGGAUCACCCAUGUAGGUCCUACGUGCCAUUUAAGUAGCUCGUCUUAUUCCCA [Sensor-V1 #67] (Eterna round: R97, puzzle: Sensor, turn-off variant 1) | 40.2 |  | 45.6 | 
UAAUUGUGAGGAUAUCAGGUGUGCUAGCGUACUGGUACAUCUGAGAAGGCACAUGAGGAUCACCCAUGUUCCUU [Mat - Exclusion 4 - Mod of JL - D47] (puzzle: Exclusion 4) |  |  |  | apparent KD of MS2 coat protein [3]: 13.6 nM
UAAUUGUGAGGAUAUUCGUUUUUCACGGAGACGUGAAGAACGGAGAAGGCACAUGAGGAUCACCCAUGUUCCUU [Mat - Exclusion 4 - JL Mod - D15] (Eterna round: R97, puzzle: Exclusion 4) | 89.3 |  | 19.5 | 
UACAAGCAAGGAUAUACAUGAGGAUCACCCAUGUCACUCCUAGCGCGGGUUUUGAAAUGUAGAAGGUGCACCUG [EX3 B.14] (Eterna round: R97, puzzle: Exclusion 3) | 17.3 |  | 20.5 | 
UACAAUAAGGAGGAUAUCGUAUCGGAAACGAUACGAGAAGGCUUAACAUGAGGAUCACCCAUGUUCUUCAAUAU [Mat - Exclusion 6 - Eli Mod - D97] (puzzle: Exclusion 6) |  |  |  | apparent KD of MS2 coat protein [2]: 18.7 nM; apparent KD of MS2 coat protein [3]: 15.2 nM; apparent KD of MS2 coat protein [4]: 15.6 nM
UACACUGCAUGAGGAUCAAACAUGAGGAUCACCCAUGUAUAGCAGGCUUUUUGCACGUCUUAUAAUUAUGUAGUGUA [Electric Eye 15 - Jieux - Sensor, turn-off variant 1] (Eterna round: R97, puzzle: Sensor, turn-off variant 1) | 14.2 |  | 14.4 | 
UACACUGCAUGAGGAUCAAACAUGAGGAUCACCCAUGUAUUGCAAGCUUUUUGCACGUCUUAUAAUUAUGUAGUGUA [Electric Eye 20 - Jieux - Sensor, turn-off variant 1] (Eterna round: R97, puzzle: Sensor, turn-off variant 1) | 17.2 |  | 17.2 | 
UACAGUCAUCCUUGUUGUUACAUGAGGAUCACCCAUGUUAGUAUAGUUAAGUUAUGUGAGUUUGUUGUUCGUUUUAU [JR_STOV1_v2_Sub077] (Eterna round: R97, puzzle: Sensor, turn-off variant 1) | 149 |  | 169 | 
UACAGUCGAGGAUAUACGAUCGUGCUUCGGCACGUAAGAUCACAUGAGGAUCACCCAUGUAGAAGGCGACUGUA [Mod 9 - Jieux - Exclusion 2] (Eterna round: R97, puzzle: Exclusion 2) | 226 |  | 35.1 | 
UACAUGAGGAUCACCCAUGUUUUGUCGUGUAUGGUAUUUAUCUAGGAUAUCAAUCUAUGUAUUUAUGAGAAGGAGAAUAUUAAU [JMF's solution 51] (Eterna round: R96, puzzle: Exclusion NG 3) |  | 31 |  | 
UACAUGAGGAUCACCCAUGUUUUGUCGUGUAUGGUAUUUAUCUAGGAUAUCAAUGUAAUUAUUUAUGAGAAGGAGAAUAUUAAU [JMF's solution 40] (Eterna round: R96, puzzle: Exclusion NG 3) | 41.2 | 36.1 | 44.7 | 
